According to publication PMC5557760:

Target: T1, PtpA (Mycobacterium tuberculosis) (UniProt P9WIA1)
T1 sequence: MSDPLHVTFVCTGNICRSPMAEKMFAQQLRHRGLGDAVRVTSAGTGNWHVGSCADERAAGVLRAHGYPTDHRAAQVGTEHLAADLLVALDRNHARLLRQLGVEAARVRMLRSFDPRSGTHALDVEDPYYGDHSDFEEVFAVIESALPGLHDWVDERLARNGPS
Assay: competition
Conditions: EMSA: 10 ug PtpA, 10 nM biotin-labeled DNA, Beyotime GS009 binding buffer (salt, pH not stated), 20 min, room temperature, 15% native PAGE

Sequence: CCTTAAAACAAAAGACATGAAAAGATAATAAGAAAAAAGTGCCGCAACTATTATAGAAAAACACTTGGCAGCCTGCTTCAGCCCAAGCTGAGGCCACCTCTAGCCTCTGCTAAAGCCCCCCACTCCCAATGGTCCCCGCCAACCGGATAA (double strand) [GADD45A promoter -250 to -100, unlabeled negative competitor]
- binding: no binding
